Reference: patent US7812117B2, “Vasostatin as marrow protectant” (The United States of America as represented by the …, priority 1998, dated 2010)

Experiments:
[1] = test system: murine Lin- bone marrow cells enriched with hematopoietic progenitors; assay: Proliferation of lineage-negative bone marrow population enriched for hematopoietic progenitors; assay type: cell-based, mouse
Procedure: FIG. 11 is a set of two bar graphs showing the proliferative responses of unseparated (FIG. 11A) and purified (FIG. 11B) bone marrow cell populations in response to vaso. Bone marrow cell populations, obtained from the femural cavities of C57BL/6NCR mice (9 weeks of age) were either used as such or were further purified by negative selection as lineage negative (CD5, CD45R, CD11b, Gr-1 and TER119) cells by magnetic cell depletion. Both cell populations were incubated (0.5×10^6 cells/ml) in culture medium supplemented with IL-3 (20 ng/ml) with or without vaso (10 μg/ml). Cell proliferation was measured by ^3H thymidine incorporation during the final 22 hr of a 4, 5 or 6-day (D) culture. Data shown reflects the mean of triplicate cultures.
The examples described above utilized unpurified populations of murine bone marrow cells derived from the femur. To characterize the cell or cells within the bone marrow cell population that are targets of stimulation by vaso, cell separation experiments were performed. […]
The effects of vaso were tested on this cell population that is enriched with murine hematopoietic cells, and compared with unseparated bone marrow populations. […] On days 4 and 5, cell proliferation was measured. […]

[2] = test system: human umbilical vein-derived (HUVEC) endothelial cells; settings: as previously reported (Pike et al., 1998; 1999); cited from earlier work

B1: vaso: N-terminal domain of calreticulin (amino acids 1-180, SEQ ID NO:3); given as fusion protein with maltose binding protein, MBP-vaso (protein)
chain: EPAVYFKEQFLDGDGWTSRWIESKHKSDFGKFVLSSGKFYGDEEKDKGLQTSQDARFYALSASFEPFSNKGQTLVVQFTVKHEQNIDCGGGYVKLFPNSLDQTDMHGDSEYNIMFGPDICGPGTKKVHVIFNYKGKNVLINKDIRCKDDEFTHLYTLIVRPDNTYEVKIDNSQVESGSLE
modifications: Vasostatin
[1]; IL-3 alone or IL-3 together with IL-6 and Stem Cell Factor
  cell growth of murine bone marrow cells enriched for hematopoietic cells by negative selection: similarly stimulated cell growth
[1]; enriched marrow, vaso 10 μg/ml, IL-3 20 ng/ml
  increase in cell proliferation on day 5: 3.3 fold
[2]
  proliferation of primary cultures of HUVEC: consistently inhibited the proliferation
